Test results as given in US20220017635A1.

Columns and labels:
[1] = biological target: chimeric TfR A14 (human/mouse chimera) (UniProt P02786); assay: ELISA on immobilized chimeric TfR; grade = binding relative to His-huTfR (++ 0.5 or more, + 0.2 to less than 0.5)
[2] = biological target: chimeric TfR A05 (human/mouse chimera) (UniProt P02786); assay: as above
[3] = biological target: chimeric TfR A07 (human/mouse chimera) (UniProt P02786); assay: as above
[4] = biological target: huTfR with mouse protease-like domain (human/mouse chimera); assay: as above
huTfR with mouse protease-like domain (human/mouse chimera), sequence (chain, as listed by the source mutant limits assumed): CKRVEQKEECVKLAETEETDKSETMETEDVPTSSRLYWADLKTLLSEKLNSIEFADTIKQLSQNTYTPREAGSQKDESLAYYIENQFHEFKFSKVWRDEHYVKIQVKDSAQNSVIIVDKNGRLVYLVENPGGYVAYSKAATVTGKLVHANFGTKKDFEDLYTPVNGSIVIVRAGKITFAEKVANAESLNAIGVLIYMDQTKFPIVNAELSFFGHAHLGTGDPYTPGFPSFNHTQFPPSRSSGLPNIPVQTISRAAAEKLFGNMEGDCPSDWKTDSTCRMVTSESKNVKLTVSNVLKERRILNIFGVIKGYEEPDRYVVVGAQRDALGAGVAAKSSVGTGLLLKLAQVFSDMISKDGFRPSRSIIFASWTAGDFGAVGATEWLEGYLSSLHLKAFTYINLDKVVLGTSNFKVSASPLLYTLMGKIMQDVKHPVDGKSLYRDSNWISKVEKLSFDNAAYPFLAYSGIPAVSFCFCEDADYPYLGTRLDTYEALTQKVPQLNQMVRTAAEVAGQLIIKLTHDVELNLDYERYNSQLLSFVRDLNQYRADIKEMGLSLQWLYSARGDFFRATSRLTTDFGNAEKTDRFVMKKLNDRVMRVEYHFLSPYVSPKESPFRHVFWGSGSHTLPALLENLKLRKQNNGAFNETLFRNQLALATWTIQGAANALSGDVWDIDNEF

[5] = biological target: chimeric TfR A02 (human/mouse chimera) (UniProt P02786); assay: ELISA on immobilized chimeric TfR
chimeric TfR A02 (human/mouse chimera), sequence (P02786 other isoform, or with tags, fused parts or gaps mutant): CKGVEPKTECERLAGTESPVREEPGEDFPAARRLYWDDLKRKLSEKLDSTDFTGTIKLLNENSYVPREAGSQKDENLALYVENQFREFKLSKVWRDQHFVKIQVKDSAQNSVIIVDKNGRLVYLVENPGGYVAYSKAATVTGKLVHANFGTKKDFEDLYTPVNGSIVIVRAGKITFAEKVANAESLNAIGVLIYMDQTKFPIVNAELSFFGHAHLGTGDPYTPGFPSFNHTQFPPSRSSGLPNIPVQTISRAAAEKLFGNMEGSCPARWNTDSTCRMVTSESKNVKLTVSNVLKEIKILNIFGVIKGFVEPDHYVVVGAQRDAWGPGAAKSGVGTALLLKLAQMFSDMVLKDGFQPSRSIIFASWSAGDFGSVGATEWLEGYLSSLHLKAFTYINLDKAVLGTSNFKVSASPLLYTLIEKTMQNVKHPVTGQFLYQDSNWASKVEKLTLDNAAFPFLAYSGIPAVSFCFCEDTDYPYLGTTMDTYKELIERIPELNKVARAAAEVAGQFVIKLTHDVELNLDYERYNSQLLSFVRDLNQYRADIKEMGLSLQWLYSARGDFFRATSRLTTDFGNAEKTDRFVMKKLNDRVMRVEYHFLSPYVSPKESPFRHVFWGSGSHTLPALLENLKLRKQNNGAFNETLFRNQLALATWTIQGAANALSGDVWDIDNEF

[6] = biological target: chimeric TfR A04 (human/mouse chimera) (UniProt P02786); assay: ELISA on immobilized chimeric TfR
chimeric TfR A04 (human/mouse chimera), sequence (P02786 other isoform, or with tags, fused parts or gaps mutant): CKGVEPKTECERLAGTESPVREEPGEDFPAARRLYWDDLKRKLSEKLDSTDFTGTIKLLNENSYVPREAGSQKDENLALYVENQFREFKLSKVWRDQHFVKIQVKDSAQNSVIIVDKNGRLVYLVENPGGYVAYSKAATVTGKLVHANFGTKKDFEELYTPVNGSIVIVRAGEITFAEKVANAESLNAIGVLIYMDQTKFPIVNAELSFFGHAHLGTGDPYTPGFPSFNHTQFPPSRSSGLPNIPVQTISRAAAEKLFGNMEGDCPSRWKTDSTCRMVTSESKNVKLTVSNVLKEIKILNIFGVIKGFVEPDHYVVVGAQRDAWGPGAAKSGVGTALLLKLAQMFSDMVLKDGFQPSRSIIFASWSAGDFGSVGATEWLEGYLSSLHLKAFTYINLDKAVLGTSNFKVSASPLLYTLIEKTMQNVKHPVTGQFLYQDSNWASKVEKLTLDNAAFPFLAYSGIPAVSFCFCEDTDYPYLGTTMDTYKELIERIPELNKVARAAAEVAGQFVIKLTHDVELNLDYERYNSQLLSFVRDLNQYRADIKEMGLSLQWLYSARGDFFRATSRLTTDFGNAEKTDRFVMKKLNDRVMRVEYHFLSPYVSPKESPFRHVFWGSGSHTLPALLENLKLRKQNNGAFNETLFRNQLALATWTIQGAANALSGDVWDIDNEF

[7] = biological target: huTfR with mouse apical domain (human/mouse chimera) (UniProt P02786); assay: ELISA on immobilized chimeric TfR
huTfR with mouse apical domain (human/mouse chimera), sequence (P02786 other isoform, or with tags, fused parts or gaps mutant): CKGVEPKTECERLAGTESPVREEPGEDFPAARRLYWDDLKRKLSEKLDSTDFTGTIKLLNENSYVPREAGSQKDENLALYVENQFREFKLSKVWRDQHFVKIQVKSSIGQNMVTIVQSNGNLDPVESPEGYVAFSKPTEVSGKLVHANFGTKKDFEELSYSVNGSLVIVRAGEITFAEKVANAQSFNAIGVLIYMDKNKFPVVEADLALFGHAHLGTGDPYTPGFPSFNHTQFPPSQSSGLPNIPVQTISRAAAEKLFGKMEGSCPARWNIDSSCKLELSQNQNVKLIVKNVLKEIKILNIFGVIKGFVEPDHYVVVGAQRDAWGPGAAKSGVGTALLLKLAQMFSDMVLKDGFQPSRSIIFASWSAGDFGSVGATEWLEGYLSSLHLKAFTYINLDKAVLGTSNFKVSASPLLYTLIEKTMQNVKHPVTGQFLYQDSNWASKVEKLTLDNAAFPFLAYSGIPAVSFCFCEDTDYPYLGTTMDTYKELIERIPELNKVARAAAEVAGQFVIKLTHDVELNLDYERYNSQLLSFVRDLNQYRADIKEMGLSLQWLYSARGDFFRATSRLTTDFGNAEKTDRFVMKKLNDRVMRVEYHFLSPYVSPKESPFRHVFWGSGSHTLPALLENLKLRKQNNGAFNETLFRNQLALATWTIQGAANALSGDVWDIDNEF

[8] = biological target: chimeric TfR A03 (human/mouse chimera) (UniProt P02786); assay: ELISA on immobilized chimeric TfR
chimeric TfR A03 (human/mouse chimera), sequence (P02786 other isoform, or with tags, fused parts or gaps mutant): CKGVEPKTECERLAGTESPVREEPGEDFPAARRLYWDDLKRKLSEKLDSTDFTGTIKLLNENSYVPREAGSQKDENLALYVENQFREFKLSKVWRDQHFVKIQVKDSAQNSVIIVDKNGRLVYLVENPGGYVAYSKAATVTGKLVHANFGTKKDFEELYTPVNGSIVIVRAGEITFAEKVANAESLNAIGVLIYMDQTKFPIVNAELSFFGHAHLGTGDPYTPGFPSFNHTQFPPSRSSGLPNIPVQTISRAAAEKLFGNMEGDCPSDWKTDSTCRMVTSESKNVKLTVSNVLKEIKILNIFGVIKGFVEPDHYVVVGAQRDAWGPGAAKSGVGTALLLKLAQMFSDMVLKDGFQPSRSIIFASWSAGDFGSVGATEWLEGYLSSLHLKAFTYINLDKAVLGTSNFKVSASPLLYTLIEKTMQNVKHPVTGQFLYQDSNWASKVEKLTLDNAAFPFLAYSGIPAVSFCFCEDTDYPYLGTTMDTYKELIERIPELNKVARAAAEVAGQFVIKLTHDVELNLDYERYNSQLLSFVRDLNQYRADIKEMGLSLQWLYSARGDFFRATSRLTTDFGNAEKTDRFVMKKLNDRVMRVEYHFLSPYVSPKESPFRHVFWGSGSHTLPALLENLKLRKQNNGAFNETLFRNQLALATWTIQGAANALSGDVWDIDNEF

[9] = biological target: chimeric TfR A04 (human/mouse chimera) (UniProt P02786); assay: ELISA on immobilized chimeric TfR; grade = binding relative to His-huTfR (++ 0.5 or more, + 0.2 to less than 0.5)
[10] = biological target: chimeric TfR A03 (human/mouse chimera) (UniProt P02786); assay: as above

chimeric TfR A14 (human/mouse chimera), sequence (P02786 other isoform, or with tags, fused parts or gaps mutant): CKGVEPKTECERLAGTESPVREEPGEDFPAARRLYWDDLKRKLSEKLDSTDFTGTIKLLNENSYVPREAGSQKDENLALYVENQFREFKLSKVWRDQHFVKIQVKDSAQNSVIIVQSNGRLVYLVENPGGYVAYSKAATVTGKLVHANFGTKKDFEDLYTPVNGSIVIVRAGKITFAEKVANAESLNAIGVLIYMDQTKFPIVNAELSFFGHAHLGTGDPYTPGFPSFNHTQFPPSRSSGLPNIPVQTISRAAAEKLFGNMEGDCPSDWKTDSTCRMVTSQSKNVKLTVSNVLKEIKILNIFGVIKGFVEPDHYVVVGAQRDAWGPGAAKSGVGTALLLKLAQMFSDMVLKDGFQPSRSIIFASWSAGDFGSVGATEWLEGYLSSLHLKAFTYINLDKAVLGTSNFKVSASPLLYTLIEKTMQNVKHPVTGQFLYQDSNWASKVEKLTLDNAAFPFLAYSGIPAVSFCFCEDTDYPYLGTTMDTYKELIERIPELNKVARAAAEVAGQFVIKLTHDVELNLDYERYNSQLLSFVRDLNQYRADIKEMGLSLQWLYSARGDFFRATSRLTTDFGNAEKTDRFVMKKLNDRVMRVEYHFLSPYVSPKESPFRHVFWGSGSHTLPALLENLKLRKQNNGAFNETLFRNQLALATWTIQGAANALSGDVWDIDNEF
chimeric TfR A07 (human/mouse chimera), sequence (P02786 other isoform, or with tags, fused parts or gaps mutant): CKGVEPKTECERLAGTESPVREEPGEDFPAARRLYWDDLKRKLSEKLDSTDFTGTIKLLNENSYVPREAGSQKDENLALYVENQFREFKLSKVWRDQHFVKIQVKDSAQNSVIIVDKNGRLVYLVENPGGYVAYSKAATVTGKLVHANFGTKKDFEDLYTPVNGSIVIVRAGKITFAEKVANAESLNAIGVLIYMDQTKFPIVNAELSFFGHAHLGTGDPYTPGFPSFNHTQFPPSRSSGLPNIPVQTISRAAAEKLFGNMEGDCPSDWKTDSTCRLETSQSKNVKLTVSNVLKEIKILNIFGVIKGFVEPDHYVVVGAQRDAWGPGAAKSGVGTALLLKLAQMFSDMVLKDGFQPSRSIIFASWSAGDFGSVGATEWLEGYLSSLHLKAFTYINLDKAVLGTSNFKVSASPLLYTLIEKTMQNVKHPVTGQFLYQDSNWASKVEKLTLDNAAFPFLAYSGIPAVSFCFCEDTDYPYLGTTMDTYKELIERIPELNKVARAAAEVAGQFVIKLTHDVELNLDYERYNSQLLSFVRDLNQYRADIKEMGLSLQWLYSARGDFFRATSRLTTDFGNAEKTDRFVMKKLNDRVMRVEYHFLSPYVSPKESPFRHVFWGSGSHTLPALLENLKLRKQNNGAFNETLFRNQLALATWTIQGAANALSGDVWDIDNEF

Row | Binder | ratio of ELISA binding activity (A450-A570) to chimeric TfR over that to His-huTfR [1] | ratio of ELISA binding activity (A450-A570) to chimeric TfR over that to His-huTfR [2] | ratio of ELISA binding activity (A450-A570) to chimeric TfR over that to His-huTfR [3] | ratio of ELISA binding activity (A450-A570) to chimeric TfR over that to His-huTfR [4] | ratio of ELISA binding activity (A450-A570) to chimeric TfR over that to His-huTfR [5] | ratio of ELISA binding activity (A450-A570) to chimeric TfR over that to His-huTfR [6] | ratio of ELISA binding activity (A450-A570) to chimeric TfR over that to His-huTfR [7] | ratio of ELISA binding activity (A450-A570) to chimeric TfR over that to His-huTfR [8] | ratio of ELISA binding activity (A450-A570) to chimeric TfR over that to His-huTfR [9] | ratio of ELISA binding activity (A450-A570) to chimeric TfR over that to His-huTfR [10]
1 | 15G11v5 (antibody, from another filing, V domains shown) VH: EVQLVQSGAEVKKPGASVKVSCKASGYTFTSYWMHWVRQAPGQRLEWIGEINPTNGRTNYIEKFKSRATLTVDKSASTAYMELSSLRSEDTAVYYCARGTRAYHYWGQGTMVTVSS VL: DIQMTQSPSSLSASVGDRVTITCRASDNLYSNLAWYQQKPGKSPKLLVYDATNLADGVPSRFSGSGSGTDYTLTISSLQPEDFATYYCQHFWGTPLTFGQGTKVEIK | > 0.5 | > 0.5 | 0.2 to 0.5 | > 0.5 | < 0.2 | < 0.2 | < 0.2 | < 0.2 |  | 
2 | 7A4v15 (antibody, from another filing, V domains shown) VH: EVQLVQSGAEVKKPGASVKVSCKGSGYTFTDYAMHWVRQAPGQGLEWMGGISTYFGRTNYNQKFKGRVTMTVDTSISTAYMELSRLRSDDTAVYYCARGLSGNYVMDYWGQGTTVTVSS VL: DIVMTQSPDSLAVSLGERATINCRASESVDSYGNSFMHWYQQKPGQPPKLLIYRASNLESGVPDRFSGSGSRTDFTLTISSLQAEDVAVYYCQQSNEAPPTFGQGTKLEIK | > 0.5 | > 0.5 | 0.2 to 0.5 | > 0.5 | < 0.2 |  | < 0.2 |  | 0.2 to 0.5 | > 0.5
3 | 16F6v4 (antibody, from another filing, V domains shown) VH: EVQLVESGPGLVKPSETLSLTCTVSGNSITSEYAWNWIRQPPGKGLEWIGYISYSGTTSYNPSLKSRVTISRDTSKNQLSLKLSSVTAADTAVYYCARYGYGNPATRYFDVWGQGTLVTVSS VL: DIQMTQSPSSLSASVGDRVTITCRASKSISKYLAWYQQKPGKTNKLLLYSGSTLQSGVPSRFSGSGSGTDYTLTISSLQPEDFATYYCQQHNEYPWTFGQGTKVEIK | > 0.5 | > 0.5 | > 0.5 | > 0.5 | < 0.2 |  | < 0.2 |  | 0.2 to 0.5 | > 0.5
